Laboratory results published in the nanobody polyreactivity screen of Harvey et al. (2022).

Assay: yeast display, Sf9 membrane polyspecificity reagent, FACS + sequencing; frameworks hold sequencing errors
Method in brief: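 After 36–48 hours of galactose induction, yeast (Saccharomyces cerevisiae BJ5465) displaying a synthetic nanobody library were stained at 4 °C for 1 hour with 10% biotinylated, detergent-solubilized Sf9 membrane reagent. Streptavidin microbeads enriched the stained cells before FACS sorting into low and high (top ~1%) gates on anti-HA and streptavidin fluorescence. Each clone's polyreactivity label reflects its gate of origin.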

Question: With “QVQLVESGGGLVQAGGRLRLSCAASGRTLYRYAMGWYRQAPGKERELVATIRRSGGSTNYADSVKGRFTISRDNAKNTVYLQMNSLKPEDTAVYYCAAVSFKPEYYYWGQGTQVTVSS” as the sequence, how does the “polyreactivity (PSR sort gate)” value read?
Answer: Its value is “high polyreactivity”.

Question: Which “polyreactivity (PSR sort gate)” value does the source give for “QVQLVESGGGLVQAGGRLRLSCAASGRTVNQYAMGWYRQAPGKERELVAAISWSGGRTYYADSVKGRFTISRDNDKNTDYLQMNSLKPEDTAVYYCNKLTRDGRKEDYWGQGTQVTVSS” here?
Answer: Its value is “high polyreactivity”.

Question: With “QVQLVESGGGLVQAGGRLRLSCAASGSIFFYYAMGWYRQAPGKERELVADITSGGTTYYADSVKGRFTISRDNAKNTVSLQMNSLIPEDTAVYYCNAGLYPGQRPDYTNYSSDYWGQGTQVTVSS” as the sequence, how does the “polyreactivity (PSR sort gate)” value read?
Answer: The value was “low polyreactivity”.

Question: With “QVQLVESGGGLVQAGGRLRLSCAASGSIFIYNAMGWYRQAPGKERELVATSSSGTRTYYADSVKGRFTISRDNAQNTVYFQMNSLKPEDTAVYNCAADGPFRRTYGDWGQGPQVTVSS” as the sequence, how does the “polyreactivity (PSR sort gate)” value read?
Answer: The value was “low polyreactivity”.

Question: For “QVQLVESGGGLVQAGGRLRLSCAASGSIFNANAMGWYRHAPGKEREMVAGIRSGSSTNYADSVKGRFTISRDNAKNTVYLQMNSLKPEDTAVYYCATEGYWVYGFDDEYWGQGTQVTVSS”, which “polyreactivity (PSR sort gate)” value is on record?
Answer: Its value is “low polyreactivity”.

Question: With “QVQLVESGGGLVQAGGRLRLSCAASGSIFQPYAMGWSRQAPGKERELVAAINGRGGSTHYADSVKGRFTISRDNAKNTVYLQMNSLKPEDTAVYYWNRPKWYDGDYWGQGTQVTVSS” as the sequence, how does the “polyreactivity (PSR sort gate)” value read?
Answer: Its value is “high polyreactivity”.

Question: Which “polyreactivity (PSR sort gate)” value does the source give for “QVQLVESGGGLVQAGGRLRLSCAASGSIFRPNPMGLYRQAPGKDRELVAAITWSGDSTYYADSVKGRFTISRDNAKNTVYLQMNSLKPEDTAVYYCAADFTYQGYSANDYWGQGTQVTVSS” here?
Answer: The value was “low polyreactivity”.

Question: Which “polyreactivity (PSR sort gate)” value does the source give for “QVQLVESGGGLVQAGGRLRLSCAASGSIFVGNTMGWYRQAPGKERELVAAISRTARTYYADSVKGRFTISRDNAKNTVYLQMNSLKPEDTAVYYCARASTQVKYGYEYWGQGTQVTVSS” here?
Answer: Its value is “high polyreactivity”.

Question: Which “polyreactivity (PSR sort gate)” value does the source give for “QVQLVESGGGLVQAGGRLRLSCAASGSIFVKYAMGCYRHAPGKERELVATIRRSGTSTYYADSVKGRFTISRDNAMNTVYLQMNSLKPEDPAVYYCAALRSLLYRTYGYWGQGTQVTVSS” here?
Answer: Its value is “low polyreactivity”.

Question: For “QVQLVESGGGLVQAGGRLRLSCAASGSIFYYNAMGWYRQAPGKERELVAAISRGGRTYYADSVKGRFTISRDNEKNTVYLQMNSLKPEDTAVYYCSARWSGKSINTISFDYWGQGTQVTVSS”, which “polyreactivity (PSR sort gate)” value is on record?
Answer: The value was “high polyreactivity”.

Question: For “QVQLVESGGGLVQAGGRLRLSCAASGSILGDNAMGWYRQAPGKERELVAAISYRGGSTYADSVKGRFTISRDNATNTVYLQKNSLKPDDTAVYYCNKTDIDDSQYREYEYWGQGTQVTVSS”, which “polyreactivity (PSR sort gate)” value is on record?
Answer: Its value is “low polyreactivity”.

Question: With “QVQLVESGGGLVQAGGRLRLSCAASGSIYPDKAMGWYRQAPGKERELVAAIDKGTGSTNYADSVKGRFTISRDNAKITVNLQLNSLKPEDTAVYYCAKGWLTPRGGAWYDDYWGQGTQVTVSS” as the sequence, how does the “polyreactivity (PSR sort gate)” value read?
Answer: Its value is “low polyreactivity”.

Question: For “QVQLVESGGGLVQAGGRLRLSCAASGSTFARNAMGWYRQAPGKERELVPAISRGGSTYYADSVKGRFTISRDNAKNTVYLEMNSLKPEDTAVYYCAVYNFHYGYVWYPYDYWGQGTEVTVSS”, which “polyreactivity (PSR sort gate)” value is on record?
Answer: The value was “high polyreactivity”.

Question: With “QVQLVESGGGLVQAGGRLRLSCAASGSTFATYTMGWYRQPPGKERELVAAISVSGSRTYYADSVKGRFSISRDNAKNTVYLQMNSLKPEDTAVYYCAAANHKGSRMDYWGPGTQVTVSS” as the sequence, how does the “polyreactivity (PSR sort gate)” value read?
Answer: The value was “high polyreactivity”.

Question: Which “polyreactivity (PSR sort gate)” value does the source give for “QVQLVESGGGLVQAGGRLRLSCAASGSTFGSNVMGWYRQAPGKERELVASISSGGRTKYADSVKGRFTISRDNAKNTVYLQMNSLKPEDTAVYYCNTRLRKKNSRDYDYWGQGTQVTVSS” here?
Answer: Its value is “low polyreactivity”.

Question: With “QVQLVESGGGLVQAGGRLRLSCAASGSTFGWYARGWYRQAPGKERELVATISSGGSTYYADSVKGRFTISRDNAKNTVSLQMNSLKPEDTAVYYCAARIGTGVLPGRGANSHMDFWGHGTQVTVSS” as the sequence, how does the “polyreactivity (PSR sort gate)” value read?
Answer: The value was “low polyreactivity”.

Question: For “QVQLVESGGGLVQAGGRLRLSCAASGSTFHHNVMGWYRQAPGKEWELVAAITSSGGSTYYADSVKGRFTISRDNAKNTVYLQMNSLKPEDTAVYYCAKDKLIFYRVGSDYWGQGTQVNVSS”, which “polyreactivity (PSR sort gate)” value is on record?
Answer: The value was “low polyreactivity”.

Question: With “QVQLVESGGGLVQAGGRLRLSCAASGSTFRGYAMGWYRQAPGKEREFVAAITYTGSSTTYADSVIGRFTISRDNAKTTVYLQMNSLKPEYTADFYCAARYVASRIYKRYYWGQGTQVTVSS” as the sequence, how does the “polyreactivity (PSR sort gate)” value read?
Answer: The value was “high polyreactivity”.

Question: With “QVQLVESGGGLVQAGGRLRLSCAASGSTFRVYAMGWYRQAPGKERELFAAIRSGGGTNYADSVKGRFTISRDNAKNTVYLQMNSLKPEDTAVYYCAREAATDISPGYDYWGQGTQVTVSS” as the sequence, how does the “polyreactivity (PSR sort gate)” value read?
Answer: Its value is “low polyreactivity”.

Question: For “QVQLVESGGGLVQAGGRLRLSCAASGSTFSLNTMGWYRQAPGKERELFAAIRWRSGSTYYADSVKGRFTISRDNAKNTVYLHKNRLKPEDNAVYYCAVTARVTFLLRDGGRAEFDYWGQGTQVTVSS”, which “polyreactivity (PSR sort gate)” value is on record?
Answer: The value was “low polyreactivity”.

Question: With “QVQLVESGGGLVQAGGRLRLSCAASGSTFSRNTMGWYRQAPGKESELVAAISKSGGRTYYADSVKGRFTISRDNAKNTVYLQMNSLKPEDTAVYYCNGVKLLGTRGYGYLGQGTQVTVSS” as the sequence, how does the “polyreactivity (PSR sort gate)” value read?
Answer: Its value is “high polyreactivity”.

Question: For “QVQLVESGGGLVQAGGRLRLSCAASGSTFSYYAMGWYRHAPGKERELVAAITSSGSRTYYADSVKGRFTISRDKAKNTVYLQMNSLKPEDTAVYYCAAVYVYRTSYLISLYDYGYWGQGTQVTVSS”, which “polyreactivity (PSR sort gate)” value is on record?
Answer: The value was “high polyreactivity”.

Question: For “QVQLVESGGGLVQAGGRLRLSCAASGSTFWSKVMGWYRQAPGKERELVSAISYGGVTTSYADSVKGRFTISRDNAKNTVYLQMTSLKPEDTAVYYCATDYVGYYFYESDYWGQGTQVTVSS”, which “polyreactivity (PSR sort gate)” value is on record?
Answer: The value was “low polyreactivity”.

Question: Which “polyreactivity (PSR sort gate)” value does the source give for “QVQLVESGGGLVQAGGRLRLSCAASGSTFYLNAMGWYRQAPGKERELVAAISSGGRTYYADSVKGRFTISRDNAKNTVYLQMTSLKPEDTAVYYCNAVRYLRGAYNYWGQGTQVTVSS” here?
Answer: Its value is “high polyreactivity”.

Question: With “QVQLVESGGGLVQAGGRLRLSCAASGSTLSYYAMGWYIQAPGKERELVAAISFSGGSTYYADSVKGRFTISRDNAKNTVYLQMNSLKPEDTAVYYCNAPPLYRDEYWGQGTQVTVSS” as the sequence, how does the “polyreactivity (PSR sort gate)” value read?
Answer: Its value is “high polyreactivity”.

Question: Which “polyreactivity (PSR sort gate)” value does the source give for “QVQLVESGGGLVQAGGRLRLSCAASGSTYYNAMGWYRQAPGKERELVAAIRFRSGSTYYADSVKGRFTISRDNAKNTVYLQMNSLKPEDTAVYYCAAYCRRSYVDSYDIRFDYWGQGTQVTVSS” here?
Answer: The value was “high polyreactivity”.

Question: Which “polyreactivity (PSR sort gate)” value does the source give for “QVQLVESGGGLVQAGGRLRLSCAASGTIFYWNAMVWYRQATGKERELVAAINSGDSTNYADSVKGRFTISRDNAKNTVYFQMYSLKPEDTAVYYCAASIYAALNGGPGYDYWGQGTQVTVSS” here?
Answer: Its value is “low polyreactivity”.

Question: For “QVQLVESGGGLVQAGGRLRLSCAASGTTIVYYAMGWSRQAPGKEREMVAAISWSGTRTYYADSVKGRFTISRDTGKNSVYLQMNSLIPEDTAVYYCAAKGGYSTGRPTFTIFNYWGQGTQVTVSS”, which “polyreactivity (PSR sort gate)” value is on record?
Answer: Its value is “high polyreactivity”.

Question: With “QVQLVESGGGLVQAGGRLRLSCAASGYTFRRNAMGWYRQAPGKERELVAAITWRGTSTYYADSVKGRFTISRDNAKNTVYLQMNSLKPEDTAVYYCAARFYSGPGGYTMYYWGQGTQVTVSS” as the sequence, how does the “polyreactivity (PSR sort gate)” value read?
Answer: The value was “high polyreactivity”.

Question: For “QVQLVESGGGLVQAGGRLRLSCAATGRTFSYNAMGWYRQAPGKERELVAAITTNSGSRTYYADSVKGRFTISRDNAKNTVYLQMNSLKPEDTAVYYCAADGPVVSGYYWGQGTQVTVSS”, which “polyreactivity (PSR sort gate)” value is on record?
Answer: Its value is “high polyreactivity”.
